Assay results reported in article PMC8294589.

Biological target: PP2A-B56γ1 holoenzyme (UniProt P30153)
Sequence (P30153 whole entry, chain 1 of 3, other chains not shown): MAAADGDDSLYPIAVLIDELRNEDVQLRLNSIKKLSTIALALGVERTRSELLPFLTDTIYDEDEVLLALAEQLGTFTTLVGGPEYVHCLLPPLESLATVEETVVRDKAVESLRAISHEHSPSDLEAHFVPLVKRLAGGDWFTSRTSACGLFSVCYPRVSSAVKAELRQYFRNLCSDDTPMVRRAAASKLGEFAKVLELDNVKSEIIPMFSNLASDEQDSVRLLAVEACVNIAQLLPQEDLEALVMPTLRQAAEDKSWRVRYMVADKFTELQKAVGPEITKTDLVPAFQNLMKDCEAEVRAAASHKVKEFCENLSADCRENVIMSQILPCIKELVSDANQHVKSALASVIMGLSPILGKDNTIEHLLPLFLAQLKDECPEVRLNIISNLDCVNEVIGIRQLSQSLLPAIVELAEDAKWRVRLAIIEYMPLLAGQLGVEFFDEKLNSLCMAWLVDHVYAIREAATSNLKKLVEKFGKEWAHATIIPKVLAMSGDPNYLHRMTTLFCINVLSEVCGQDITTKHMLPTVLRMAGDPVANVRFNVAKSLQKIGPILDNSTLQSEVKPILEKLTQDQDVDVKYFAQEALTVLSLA
Sequence (P67775 whole entry, chain 2 of 3, other chains not shown, further chain): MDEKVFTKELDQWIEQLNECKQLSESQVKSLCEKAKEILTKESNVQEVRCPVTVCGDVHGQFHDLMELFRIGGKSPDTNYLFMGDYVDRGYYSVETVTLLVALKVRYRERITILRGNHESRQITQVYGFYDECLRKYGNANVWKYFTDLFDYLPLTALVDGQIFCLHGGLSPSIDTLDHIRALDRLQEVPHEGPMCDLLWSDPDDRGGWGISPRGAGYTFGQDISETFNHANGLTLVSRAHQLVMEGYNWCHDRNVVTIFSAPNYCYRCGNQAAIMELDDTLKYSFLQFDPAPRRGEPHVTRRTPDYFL

Sequence of pS133-CREB (129–154) peptide (P16220 129-154): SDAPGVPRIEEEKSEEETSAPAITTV

pS133-CREB (129–154) peptide (from UniProt P16220-2 129-154)
Km of PP2A-B56γ1 holoenzyme phosphatase activity toward pS133-CREB (129–154), steady-state kinetics with a phosphate sensor (peptide 3.9 to 250 μM): 10.3 μM
